Results from patent US20020082396A1 (published 2002).

Target: T1, recombinant human IL-8 (Amersham) (human, UniProt P10145 28-99, limits assumed)
T1 construct: In the ELISA it is captured by goat anti-human IL-8 polyclonal antibody on the plate; In the neutrophil assay it is 125I-labelled and non-labelled IL-8 at 4 ng/ml each; also called human interleukin-8
T1 sequence (looked up): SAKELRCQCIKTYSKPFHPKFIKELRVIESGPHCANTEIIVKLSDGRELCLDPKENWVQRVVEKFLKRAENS
Experiment: ELISA: human IL-8 captured by goat anti-human IL-8 polyclonal antibody, COS culture medium serially diluted, AP-labelled anti-human IgG

B1: antibody of the chimeric WS-4 L chain and version a of the reshaped human WS-4 H chain (chL/RVHa) (antibody, V domains shown)
VH: EVQLLESGGGLVQPGGSLRLSCAASGFTFSDYYLSWVRQAQGKGLELVGLIRNKANGYTREYSASVKGRLTISREDSKNTLYLQMSSLKTEDLAVYYCARENYRYDVELAYWGQGTLVTVSS
VL: DIQMTQSPASLSASVGETVTITCRASEIIYSYLAWYQQKQGKSPQLLVYNAKTLADGVSSRFSGSGSGTQFSLRISSLQPEDFGSYYCQHHFGFPRTFGGGTKLELK
notes: Human C kappa and human C gamma 1 regions (HEF-chWS4L-gk with HEF-RVHa-gg1), tested as COS cell culture medium
B1: no binding.

B2: reshaped human WS-4 antibody RVLa/RVHc (antibody, V domains shown)
VH: EVQLLESGGGLVQPGGSLRLSCAASGFTFSDYYLSWVRQAPGKGLELVGLIRNKANGYTREYSASVKGRLTISREDSKNTLYLQMSSLKTEDLAVYYCARENYRYDVELAYWGQGTLVTVSS
VL: DIQMTQSPSSLSASVGDRVTITCRASEIIYSYLAWYQQKPGKAPKLLIYNAKTLADGVPSRFSGSGSGTDFTFTISSLQPEDIATYYCQHHFGFPRTFGQGTKVEIK
notes: Human C kappa and human C gamma 1 regions, tested as COS cell culture medium; also called antibody having H chain version c
B2: no binding.
